Assay results published in article PMC3283256 (The Journal of Biological Chemistry, 2010).

Target: His-tagged N-WASP (rat, UniProt O08816 1-501)
Assay: pull-down

His-tagged N-WASP, sequence (O08816 whole entry): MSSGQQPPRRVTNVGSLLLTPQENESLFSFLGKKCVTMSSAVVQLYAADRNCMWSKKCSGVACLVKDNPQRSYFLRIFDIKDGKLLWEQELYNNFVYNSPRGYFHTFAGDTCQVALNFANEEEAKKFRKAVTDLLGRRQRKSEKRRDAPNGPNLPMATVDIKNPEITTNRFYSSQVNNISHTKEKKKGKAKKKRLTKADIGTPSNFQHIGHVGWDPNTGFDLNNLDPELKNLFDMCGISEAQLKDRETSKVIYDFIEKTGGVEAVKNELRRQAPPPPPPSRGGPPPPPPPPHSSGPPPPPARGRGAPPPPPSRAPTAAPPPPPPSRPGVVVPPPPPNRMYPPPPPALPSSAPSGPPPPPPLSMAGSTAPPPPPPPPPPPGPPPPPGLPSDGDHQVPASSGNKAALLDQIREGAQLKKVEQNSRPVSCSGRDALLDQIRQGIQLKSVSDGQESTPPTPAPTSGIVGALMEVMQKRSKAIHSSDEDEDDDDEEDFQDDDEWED

Binder	binding result
GST-Gas7 (natural protein, mouse, UniProt Q60780 1-421, looked up) MATALQKPGMVPPPPGEESQTVILPPGWHSYLSPQGRRYYVNTTTNETTWERPSSSPGISASPAPHRSSLPTTVNGYHASGTPAHPPETAHMSLRKSTGDSQNLGSSSPGRKQSKENTITINCVTFPHPDTMPEQQLLKPTEWSYCDYFWADKKDPQGNGTVAGFELLLQKQLKGKQMQKEMSEFIRERIKIEEEYAKNLAKLSQNSLAAQEEGSLGEAWAQVKKSLADEAEVHLKFSAKLHSEVEKPLMNFRENFKKDMKKCDHHIADLRKQLASRYASVEKARKALTERQKDLEMKTQQLEIKLSNKTEEDIKKARRKSTQAGDDLMRCVDLYNQAQSKWFEEMVTTTLELERLEVERVEMIRQHLCQYTQLRHETDMFNQSTVEPVDQLLRKVDPAKDRELWVREHKTGNIRPVDMEI	binds
GST-Gas7WW2 (domain or fragment, mouse, UniProt Q60780 1-151, looked up) MATALQKPGMVPPPPGEESQTVILPPGWHSYLSPQGRRYYVNTTTNETTWERPSSSPGISASPAPHRSSLPTTVNGYHASGTPAHPPETAHMSLRKSTGDSQNLGSSSPGRKQSKENTITINCVTFPHPDTMPEQQLLKPTEWSYCDYFWA	binds
